# Results taken from the RNAGym collection of RNA variant scans (doi:10.7554/elife.90254).
# B1: OR4K15 (parent)
# chain: GUUAACGGUCAUAGGCCAUGGAAACUAGGAGCACCAUUUCGCUGCCAGUGAAGAAAUGAACAAAGAAAAUCUGGGCCAGGCAGGCAUCAAAAGAAAUAGUCUUGCGCUCAACCAGAAAGUCUGUAAUCAUUUUAAGGGUA
# Variants of: B1
# Assay: self-cleavage, relative activity (ratio to wild type); higher = more cleavage; in vitro, sequencing; the parent is a self-cleaving ribozyme
row,Variant,self-cleavage
1,A111U,0.08
2,A114C A126G,0.02
3,A116G A140U,0.92
4,A116G A140G,0.97
5,U122C A135C,0.54
6,U120C U124C,0.34
7,A116U U127G,0.11
8,U122A U124A,0.14
9,A126G G136A,1.4
10,U124G A129C,0.33
11,A118G U127A,1.26
12,A118G U127C,0.24
13,U122A A126G,0.67
14,U122A U131C,0.34
15,U122A U131G,0.73
16,A118U U132C,0.4
17,A118U,0.61
18,A118C,0.97
19,A118G,0.89
20,A117U,0.59
21,A117G,1.4
22,A117C,0.55
23,A114G U139C,0.32
24,A118C U139A,1.24

row,Variant,self-cleavage
1,A125G G137U,0.98
2,A125U C128U,1.62
3,U124C A129U,0.94
4,U124C A129G,0.8
5,A116G A118C,0.15
6,U124A U132G,0.61
7,A114G U122C,0.16
8,A114G U122A,0.39
9,C128U,0.85
10,C128A,0.84
11,C128G,0.45
12,C121A U130C,1.87
13,A114C U131C,0.02
14,A117U U122C,1.24
15,A117U A129G,0.47
16,U120C A126G,0.27
17,A125G U131C,0.2
18,A114U A129G,0.06
19,C113U U131C,0
20,A114G A117U,0.4
21,A118U U124C,0.45
22,U130C U133A,2.08
23,A117U U132C,0.88
24,U127C A135U,0.65

row,Variant,self-cleavage
1,C113U U130C,0.04
2,C121A U122C,1.62
3,A114U U133C,0.14
4,C112A U127C,0.03
5,A111G U132C,0.03
6,A111G U132A,0.02
7,A116U G136A,0.07
8,U124C A140U,1.14
9,A125U A135G,0.55
10,G123A A129C,0.92
11,A126C U132C,0.5
12,A116G U133G,0.82
13,A126G A140G,1.28
14,A126G A140U,1.58
15,C113A U130C,0
16,A118U A135C,0.3
17,A114U A116U,0.03
18,A111G U131C,0.01
19,A111U A134G,0.03
20,A114G A116G,0.1
21,A117G A118C,0.24
22,U120G U122C,1.08
23,A126C U127C,0.21
24,G115U A117G,0.39

row,Variant,self-cleavage
1,U122G A129G,1.33
2,C121U,1.65
3,C121A,2.65
4,A114G A118G,0.36
5,U120C A134G,1.3
6,U122C A129G,0.46
7,A114U G137U,0.3
8,A116U U122A,0.25
9,U130A U139A,0.89
10,C113U U122C,0.08
11,U122C A134G,1.75
12,A126U U130C,1.08
13,U127A A134G,2.3
14,U127A A134U,1.36
15,A117G A129U,1.01
16,A114U U120C,0.03
17,A114U U120A,0.05
18,U122A A135U,1
19,C121U A135G,2.01
20,U122C G136U,1.86
21,U124C A134G,1.11
22,A116G A134U,0.2
23,G115U A126U,0.25
24,A125G U133C,1.09

row,Variant,self-cleavage
1,A118G U120C,0.44
2,A118U U131C,0.37
3,A125U,1.81
4,A125C,0.46
5,A125G,0.56
6,G115A U131C,0.04
7,A126G U132A,0.69
8,U122A C128A,1.32
9,A126G U131C,1.14
10,U124A A126G,0.76
11,U124C G137C,0.78
12,A125G A129G,0.41
13,A118U U120C,0.08
14,A114G G138A,0.76
15,U127C A140G,0.73
16,C112U A117G,0.01
17,A126U G137A,1.21
18,A117U U124A,0.27
19,A116U G138U,0.03
20,G119A U132C,2.46
21,C121U U131C,2.02
22,U130C A135G,1.89
23,A114U,0.06
24,A114G,0.45

row,Variant,self-cleavage
1,A114C,0.04
2,A117C U139C,0.68
3,U130C G138A,1.41
4,A117U U120C,0.83
5,A117U U139C,1.57
6,U120C U130C,0.3
7,U130C,0.76
8,U130A,0.92
9,C113U A117G,0.08
10,A114C A129G,0.01
11,A116U U124A,0.08
12,A116U A117G,0.15
13,A118G A140C,1.36
14,U120A U131C,1.22
15,G119A A129U,0.67
16,U124C U132G,0.76
17,A117G A135G,2.66
18,A114U A140G,0.08
19,A129G A140G,1.24
20,U122C A126G,0.76
21,G115A C121A,0.33
22,A114U U122A,0.04
23,A114U U122C,0.04
24,U127A A135U,2.12

row,Variant,self-cleavage
1,U127A A135G,2.31
2,U127C G136A,0.59
3,U120A U130C,1.78
4,A117G U120A,2.78
5,U124A U130C,0.1
6,U127C A134G,1.09
7,A118G U122C,1.04
8,A116U A129G,0.13
9,A114U A118G,0.05
10,C128U U131C,1.17
11,A126G U139C,1.19
12,A117C A135G,0.2
13,C128U U130C,0.55
14,A116G G136A,1.65
15,A116G G136U,0.74
16,U122A A140G,1.17
17,U120G U130C,1.46
18,A125U U133C,2.54
19,U124A U131C,0.36
20,G123C A135G,0.78
21,U124C U139C,0.91
22,U127A C128U,1.78
23,A118C U122A,1.12
24,U120C C128U,0.84

row,Variant,self-cleavage
1,A111G C128A,0.01
2,A114G U127C,0.11
3,A126G U133C,1.2
4,A118G U130C,0.73
5,A111G C121A,0.03
6,U124C A125U,1.37
7,U122C G137C,1.67
8,A117G C128U,2.12
9,A117G U132A,1.62
10,A117G U132C,1.85
11,A117G U122A,2.35
12,A125G G138C,0.83
13,A125G G138A,0.47
14,A114G A134U,0.23
15,A114U A125U,0.08
16,U120C A140G,1.07
17,A116G U124A,0.69
18,A114U A135G,0.05
19,U127C U132C,0.86
20,U127C U132G,1.62
21,A116G U131A,0.25
22,A116G U127C,0.31
23,A116G U127A,0.72
24,C128U A140U,2.45

row,Variant,self-cleavage
1,A117C U120A,1.28
2,U120C A135G,1.03
3,U120C A135U,0.85
4,A116G A129G,0.41
5,C112U U132C,0.01
6,A118G A134G,0.71
7,A118U U130G,0.71
8,A117U U127C,0.61
9,U120C U132C,0.85
10,U120C U132A,1.42
11,U122A U130C,0.8
12,A118G U139C,1.43
13,A118G U139A,0.92
14,A111G G137A,0.02
15,A116C U133C,0.28
16,A126G A129U,0.83
17,A118G C128U,0.61
18,C112U U122C,0.01
19,A118G G123A,0.58
20,G119U U132C,1.41
21,A129G U132C,1.16
22,A118G A126C,0.84
23,A118G A126U,1.22
24,A114C U122C,0.01

row,Variant,self-cleavage
1,A126G,0.84
2,A126U,0.78
3,A126C,0.52
4,A111U A118G,0.05
5,A116G G123A,0.19
6,A118U U127A,0.97
7,U122A A125G,0.55
8,A111G U120A,0
9,U130A A140G,1.02
10,A116G U122A,0.5
11,U120C A129U,0.78
12,G115U A129U,0.03
13,U122C U130C,0.64
14,U120C U122C,0.32
15,A118G C121A,2.97
16,A118G C121U,1.94
17,C112G U120A,0.01
18,C113U A140G,0.12
19,U120A U133C,1.41
20,A125U U130C,1.66
21,A118G A129U,0.61
22,A118G A129G,0.29
23,U122C A140C,1.25
24,A117G U127C,0.77

row,Variant,self-cleavage
1,A118U U122C,0.89
2,U127C U130C,0.69
3,C121A A126G,1.78
4,C112A A129G,0.01
5,A118G U132A,1.11
6,A118G U132C,0.18
7,A116G A117G,0.55
8,A116G A117C,0.1
9,U124A A140G,0.65
10,U120C U127A,0.21
11,U122A U139C,0.94
12,A116U U132A,0.05
13,U124A A125G,0.91
14,G115U U130C,0.07
15,U120A A129U,0.57
16,C121A A140G,1.61
17,G115A U124C,0.05
18,A114G U120C,0.18
19,C121U U130C,0.92
20,C113A A116G,0.01
21,A114G A140U,0.41
22,A114G A140G,0.26
23,U122C U127A,2.22
24,A118G G138A,1.14

row,Variant,self-cleavage
1,A118U A129G,0.85
2,A118G A135G,1.15
3,A111G U122A,0.01
4,A111G U122G,0.01
5,A111U A126G,0.06
6,U127C A129G,0.46
7,A118G U131C,0.63
8,G123U G136A,2.35
9,U127A U133C,2.29
10,G115A,0.12
11,G115C,0.14
12,G115U,0.23
13,U122C U139C,0.78
14,A111U U120A,0.08
15,A129G U130C,1.73
16,A129G U130A,1.41
17,A126G U130G,1.19
18,A126G U130C,0.61
19,A116G A126G,0.12
20,U127A U132C,1.55
21,A111U U122C,0.08
22,C113U G136A,0.18
23,U122A A134G,0.73
24,A117G U133C,1.85

row,Variant,self-cleavage
1,U122A U127C,0.98
2,U120C U131A,0.52
3,A114U U131C,0.02
4,A116C A129G,0.05
5,G123C,1.16
6,G123A,1.06
7,G123U,1.59
8,C113U A129G,0.01
9,A117G U139C,1.34
10,A117G U139A,1.85
11,C121A U127C,0.2
12,U130C U132C,1.17
13,U130C U132A,1.4
14,U127A U139C,2.29
15,A125G U130C,0.53
16,A118G U133A,1.28
17,A118G U124C,1.37
18,U124C G138C,1.31
19,G115U U131C,0.06
20,A117G A126C,1.79
21,U122G G137A,2.2
22,A125U U132C,1.97
23,U120C U139G,1.36
24,U120C U139A,0.85

row,Variant,self-cleavage
1,A111G U130A,0.02
2,A111G U130C,0.01
3,U127A A129G,2.49
4,G115A A116G,0.23
5,A114U U139A,0.07
6,A111G U124A,0.02
7,A114U U127A,0.03
8,A117C U122C,0.4
9,C112U,0.02
10,C112A,0.01
11,C112G,0.02
12,A129G G137A,0.54
13,A129G G137U,1.7
14,U127A U130C,0.43
15,G119A U139C,2.96
16,A117G A140G,1.68
17,A117G A140U,1.12
18,A114G G115U,0.02
19,U124C,0.62
20,U124G,0.98
21,U124A,0.69
22,A116G U130C,0.25
